Results from patent US20240207432A1 (BIOSION, published 2024).

T1: human TROP2-his protein (human, UniProt P09758 27-274)
T1 construct: Biotin-labelled in the ELISAs, unlabelled analyte in Biacore; also called biotin-labeled human TROP2-his protein; biotin human Trop2-his
T1 sequence: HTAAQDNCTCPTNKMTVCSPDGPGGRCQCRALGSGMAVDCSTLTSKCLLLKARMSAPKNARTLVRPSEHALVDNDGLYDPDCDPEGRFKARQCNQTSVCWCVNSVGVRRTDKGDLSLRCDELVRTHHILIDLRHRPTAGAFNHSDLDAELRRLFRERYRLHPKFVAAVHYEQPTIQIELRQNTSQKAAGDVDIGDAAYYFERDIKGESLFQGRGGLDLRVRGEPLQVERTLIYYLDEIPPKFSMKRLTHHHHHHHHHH

T2: full length human TROP2 on 293F-TROP2 cells (human, UniProt P09758 27-323)
T2 construct: also called 293F-TROP2 cells (clone ID #3A8); cell surface TROP2
T2 sequence: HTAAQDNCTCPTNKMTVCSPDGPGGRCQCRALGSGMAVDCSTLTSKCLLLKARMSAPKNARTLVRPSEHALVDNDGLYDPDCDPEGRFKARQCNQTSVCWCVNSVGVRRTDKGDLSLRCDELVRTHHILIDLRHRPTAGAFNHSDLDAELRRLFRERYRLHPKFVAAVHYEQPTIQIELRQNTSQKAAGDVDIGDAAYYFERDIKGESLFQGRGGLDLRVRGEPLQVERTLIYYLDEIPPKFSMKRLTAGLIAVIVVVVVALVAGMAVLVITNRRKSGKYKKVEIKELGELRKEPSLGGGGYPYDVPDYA

T3: cynomolgus TROP2-his protein (cynomolgus monkey, UniProt P09758 27-272 (human entry), limits assumed)
T3 construct: no cleavage site is stated; also called Cynomolgus monkey TROP2-his protein; monkey TROP2
T3 chain: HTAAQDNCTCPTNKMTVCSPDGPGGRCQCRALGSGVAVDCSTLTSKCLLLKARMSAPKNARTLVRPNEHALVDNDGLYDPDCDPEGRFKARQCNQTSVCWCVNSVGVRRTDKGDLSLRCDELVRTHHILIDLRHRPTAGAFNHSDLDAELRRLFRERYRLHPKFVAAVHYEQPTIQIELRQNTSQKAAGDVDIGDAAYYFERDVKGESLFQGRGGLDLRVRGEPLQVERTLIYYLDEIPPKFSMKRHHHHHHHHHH


Tests used:
human TROP2-his protein [1] = molecular target: T1, human TROP2-his protein; assay: capture ELISA, antibody captured on anti-mouse IgG Fc coat, biotin human TROP2-his in solution, OD(450-630)
Protocol: (§1) Plates were washed once with wash buffer (PBS+0.05% v/v Tween-20, PBST) and then blocked with 200 μl/well blocking buffer (5% w/v non-fatty milk in PBST) for 2 hours at 37° C. […] Plates containing captured anti-TROP2 antibodies were incubated with biotin-labeled human TROP2-his protein (prepared in house, SEQ ID NO: 67, 56.7 ng/mL in 2.5% w/v non-fatty milk in PBST, 100 μl/well) for 40 minutes at 37° C., washed 4 times, and incubated with streptavidin conjugated HRP (1:10000 dilution in PBST, Jackson Immuno Research, Cat #016-030-084, 100 μl/well) for 40 minutes at 37° C. After a final wash, plates were incubated with 100 μl/well ELISA substrate TMB (Innoreagents, Cat #TMB-S-002) at room temperature. The reaction was stopped in 3-10 minutes at room temperature with 50 μl/well 1M H₂SO₄, and the absorbance of each well was read on a microplate reader using dual wavelength mode with 450 nm for TMB and 630 nm as the reference wavelength. The OD (450-630) values were plotted against antibody concentration. Data was analyzed using Graphpad Prism software and EC₅₀ values were reported.

[2] = molecular target: T2, full length human TROP2 on 293F-TROP2 …; assay: FACS on 293F-TROP2 cells, MFI
Protocol: The 293F-TROP2 cells were harvested from cell culture flasks, washed twice and re-suspended in phosphate buffered saline (PBS) containing 2% v/v Fetal Bovine Serum (FACS buffer). […] Following an incubation of 40 minutes at 4° C. in dark, cells were washed twice and re-suspended in FACS buffer. Fluorescence was measured using a Becton Dickinson FACS Canto II-HTS equipment, and the MFI (mean fluorescence intensity) was plotted against antibody concentration. Data was analyzed using Graphpad Prism software and EC₅₀ values were reported.

[3] = molecular target: T3, cynomolgus TROP2-his protein; assay: indirect ELISA, cynomolgus TROP2-his coated, OD(450-630)
human TROP2-his protein [4] = molecular target: T1, human TROP2-his protein; assay: capture ELISA, captured antibody, biotin human TROP2-his in solution, OD(450-630)
human TROP2-his protein [5] = molecular target: T1, human TROP2-his protein; assay: capture ELISA, antibody captured on anti-human IgG Fc coat, biotin human TROP2-his in solution, OD(450-630)
Protocol: as §1
For the Capture ELISA, AffiniPure F(ab′)₂ Fragment Goat Anti-Human IgG, Fcγ fragment specific (Jackson Immunoresearch, Cat #109-006-008) was used instead of AffiniPure Goat Anti-Mouse IgG, Fcγ fragment specific, 100 μl/well.

[6] = molecular target: T3, cynomolgus TROP2-his protein; assay: indirect ELISA, cynomolgus TROP2-his coated at 2 ug/mL, OD(450-630)
Protocol: The anti-TROP2 antibodies of the disclosure were tested for their cross-reaction with cynomolgus TROP2 proteins. Briefly, 96-well micro plates were coated with 100 μl 2 μg/ml cynomolgus TROP2-his proteins (prepared in-house with SEQ ID NO: 70) in carbonate/bicarbonate buffer (pH 9.6) overnight at 4° C. ELISA plates were washed once with wash buffer (PBS+0.05% v/v Tween-20, PBST) and then blocked with 200 μl/well blocking buffer (5% w/v non-fatty milk in PBST) for 2 hours at 37° C. […] After a final wash, plates were incubated with 100 μl/well TMB (Innoreagents) at room temperature. The reaction was stopped 3-10 minutes later at room temperature with 50 μl/well 1M H₂SO₄, and the absorbance of each well was read on a microplate reader using dual wavelength mode with 450 nm for TMB and 630 nm as the reference wavelength. The OD (450-630) values were plotted against antibody concentration. Data was analyzed using Graphpad Prism software and EC₅₀ values were reported.

Binder	EC50 (human TROP2-his protein [1]) [nM]	EC50 [2] [nM]	EC50 [3] [nM]	EC50 (human TROP2-his protein [4]) [nM]	EC50 (human TROP2-his protein [5]) [nM]	EC50 (read off the curve) [6] [nM]	EC50 [6] [nM]
mouse antibody A1E11A12D1 (antibody, V domains shown, Mouse monoclonal IgG purified from hybridoma supernatant) VH: QVQLQQSGAELARPGASVKLSCMASGYTFTTYGISWVRQRTGQGLEWIGQIYPGSDYSYCDEDFKGKATLTADKSSSTAYMQLSSLTSEDSAVYFCARASYFDYWGQGTTLTVSS VL: DILLTQSPAILSVSPGERVSFSCRASQTIGTAIHWYQQRANGSPRLLIKYASESISGIPSRFSGSGSGTDFALSINTVESEDFAYYYCQQSNNWPFTFGGGTKLEIR	0.13	–	–	–	–	–	–
mouse antibody A1H3C5H8E12 (antibody, V domains shown, Mouse monoclonal IgG purified from hybridoma supernatant) VH: QVQLQQSGAELVRPGTSVKMSCKAAGYTFTNYWIDWVKQRPGHGLEWIGNIFPGGFYTNYNEKFKGKATLTADTSSSTAYMQLSSLTSEDSAIYYCARGGVFDYWGQGTTLTVSS VL: DILLTQSPAILSVSPGERVSFSCRASQSIGTSIHWYQQRTNGSPRLLIKYASESISGIPSRFSGSGSGTDFTLSINSVESEDIADYYCQQSNSWPYTFGGGTKLEIK	0.303	–	–	–	–	–	–
mouse antibody A1E4F7D4 (antibody, V domains shown, Mouse monoclonal IgG purified from hybridoma supernatant; also called Mouse A1E4F7D4) VH: QVQLQQSGAELAKPGTSVKMSCEASGYSFTTHWIHWMKQRPGQGLEWIGTIFPSNAYAVYNQKFRDRAIMTADRSSTTAYIQLTGLTSEDSAVYYCARASYFDYWGQGTTLTVSS VL: DILLTQSPATLSVSPGERVTFSCRASQNIGTSIHWFQQRTTGSPRLLIKYASESISGIPSRFSGSGSGTDFTLHINSVESEDIAHYYCQHSHSWPFTFGSGTKLEIQ	0.0891	1.48	0.837	0.261	–	–	–
huA1E4F7D4-V16 (antibody, human IgG1, kappa, V domains shown, Positions of the X residues are given in the claims; also called humanized antibody huA1E4F7D4-V16) VH: QVQLVQSGAEVKKPGASVKVSCKASGYSFTTHWIHWVRQAPGQGLEWIGTIFPSNAYAVYNQKFRDRATMTADTSISTAYIELSRLRSDDTAVYYCARASYFDYWGQGTTVTVSS VL: EIVLTQSPATLSLSPGERATLSCRASQNIGTSIHWFQQKPGGAPRLLIKYASESISGIPSRFSGSGSGTDFTLTISSLEPEDFAVYYCQHSHSWPFTFGQGTKLEIKR	–	0.596	0.611	–	0.054	–	–
mouse antibody C1B3B12D2 (antibody, V domains shown, Mouse monoclonal IgG purified from hybridoma supernatant) VH: QVQLQQSGPELVRPGTSVKMSCKAAGYTFTKFWIGWVKQRPGHGLEWIGNIYPGGAYINYNENFKGKATLTADTFSSTAYMQLNSLTSADSAIYYCAREGSSGYWGQGTTLTVSS VL: DIVMTQSPSSLTVTAGEKVTLSCKCSQSLLNSGTQENYLTWYQQKPGQPPKMLIYWASIREPGVPDRFTGSGSGTDFTLTINNVQAEDLAVYYCQHDYSYPFTFGSGTKLEIK	0.107	–	–	0.117	–	~0.6	–
benchmark (in house prepared sacituzumab) (antibody, human IgG1, kappa, V domains shown, also called BM; BM1) VH: SVQLQQSGSELKKPGASVKVSCKASGYTFTNYGMNWVKQAPGQGLKWMGWINTYTGEPTYTDDFKGRFAFSLDTSVSTAYLQISSLKADDTAVYFCARGGFGSSYWYFDVWGQGSLVTVSS VL: DIQLTQSPSSLSASVGDRVSITCKASQDVSIAVAWYQQKPGKAPKLLIYSASYRYTGVPDRFSGSGSGTDFTLTISSLQPEDFAVYYCQQHYITPLTFGAGTKVEIKR	–	1.32	0.599	–	0.316	–	0.385
